The target of the assay is GST-LC3B, Q9GZQ8. The experiment in a line: GST-pulldown, in vitro-translated 35S-labelled protein, autoradiography quantification. The note with it: chain shown with the change; Means ± SD of 3 independent experiments; parent: est. 1.0; read off a plot.

B1: Myc-tagged ATG14, full-length, in vitro translated, Q6ZNE5 F64A; F67A; W435A; L438A (protein)
chain: MASPSGKGARALEAPGCGPRPLARDLVDSVDDAEGLYVAVERCPLCNTTRRRLTCAKCVQSGDAVYADGRDRERFIDKKERLSRLKSKQEEFQKEVLKAMEGKWITDQLRWKIMSCKMRIEQLKQTICKGNEEMEKNSEGLLKTKEKNQKLYSRAQRHQEKKEKIQRHNRKLGDLVEKKTIDLRSHYERLANLRRSHILELTSVIFPIEEVKTGVRDPADVSSESDSAMTSSTVSKLAEARRTTYLSGRWVCDDHNGDTSISITGPWISLPNNGDYSAYYSWVEEKKTTQGPDMEQSNPAYTISAALCYATQLVNILSHILDVNLPKKLCNSEFCGENLSKQKFTRAVKKLNANILYLCFSQHVNLDQLQPLHTLRNLMYLVSPSSEHLGRSGPFEVRADLEESMEFVDPGVAGESDESGDERVSDEETDLGTDAENAPSPRFCDIPSQSVEVSQSQSTQASPPIASSSAGGMISSAAASVTSWFKAYTGHR
For B1, the response turned out to be 0.6 % binding.

The values above are taken from paper PMC6613885.
